Reference: paper PMC4682053, “Mechanisms of assembly and genome packaging in an RNA virus revealed by high-resolution cryo-EM” (Nature Communications, 2015)

Target: the molecule itself
Test: cryo-EM structure; CPMV eVLP purified from N. benthamiana leaves, ~4.2 mg/ml on the grid; single particles, icosahedral symmetry imposed; 3.04 Å; atomic model built de novo

B1: Cowpea mosaic virus Small (S) coat protein with its C-terminal extension, in the empty virus-like particle (eVLP) (natural protein)
chain: GPVCAEASDVYSPCMIASTPPAPFSDVTAVTFDLINGKITPVGDDNWNTHIYNPPIMNVLRTAAWKSGTIHVQLNVRGAGVKRADWDGQVFVYLRQSMNPESYDARTFVISQPGSAMLNFSFDIIGPNSGFEFAESPWANQTTWYLECVATNPRQIQQFEVNMRFDPNFRVAGNILMPPFPLSTETPPLLKFRFRDIERSKRSVMVGHTATAA
notes: Small (S) coat protein of cowpea mosaic virus, cut from the RNA-2-encoded precursor VP60 by the 24K proteinase; C-terminal 24 amino acids (190-213) kept; modelled up to Arg202, without 184-189; numbers count on: the S subunit; the particles imaged kept it; also called S subunit; small coat protein; source: N. benthamiana, agroinfiltrated with pEAQ-HT-VP60 and pEAQ-HT-24K or pEAQexpress-VP60-24K; …
  stoichiometry N: 5
